Here are results for 1 molecule from patent US20250002565A1.

A word on the EC50: it is the concentration at which the effect is half-maximal.

The assay addresses recombinant HIV gp41 (HIV). The experiment in a line: ELISA against recombinant gp41 (in PBS).

B1: recombinant class switched IgA2 antibody (antibody, V domains shown)
VH: QVQLVESGGGVVQPGRSLRLSCAASGFTFSSYAIHWVRQAPGKGLEWVAVISYDGSNRYYADSVKGRFTISRDNSKNTLYLQMNSLRPEDTAVYYCARDRFSAVASTPTYHNYFYMDVWGKGTTVTVSS
Turning to B1, the EC50 came out at 1.29 µg/mL.
